Source: the supplement of paper PMC7125110
± gives the standard error. For some of these results: Fewer inactive variants are shown than the library holds.

B1: glmS ribozyme (parent)
chain: AUAAAAGCGCCAGAACUACAGAAAUGUAGUUGACGAGGAGGAGGUUUAUCGAAUUUUCGGCGGAUGCCUCCAAA

Key:
Details in all cases: with glucosamine-6-phosphate
glucosamine-6-phosphate [1] = variants of: B1; test: kcat; higher = faster cleavage; RNA array
In short: (§1)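 Barcoded ribozyme variants on sequenced MiSeq chips were transcribed in situ by E. coli RNA polymerase and followed at 37 °C through a hybridised Cy3 probe. Glucosamine-6-phosphate at 40 μM to 10 mM in HEPES/KCl/Mg(OAc)2 buffer was flowed in, and tiles were imaged over ~14 h. Signals were normalised to baseline and to non-cleaving reference variants, and per-tile medians were fit to one- or two-exponential decays to give kobs. Weighted Michaelis–Menten fits across concentrations gave kcat and KM.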

glucosamine-6-phosphate [2] = variants of: B1; test: self-cleavage kobs at 160 uM GlcN6P; higher = faster cleavage; RNA array
In short: as §1

glucosamine-6-phosphate [3] = variants of: B1; test: self-cleavage kobs at 640 uM GlcN6P; higher = faster cleavage; RNA array
In short: as §1

glucosamine-6-phosphate [4] = variants of: B1; test: KM; higher = weaker cofactor use; RNA array
In short: as §1

glucosamine-6-phosphate [5] = variants of: B1; test: self-cleavage kobs at 40 uM GlcN6P; higher = faster cleavage; RNA array
In short: as §1

glucosamine-6-phosphate [6] = variants of: B1; test: self-cleavage kobs at 2500 uM GlcN6P; higher = faster cleavage; RNA array
In short: as §1

glucosamine-6-phosphate [7] = variants of: B1; test: self-cleavage kobs at 10000 uM GlcN6P; higher = faster cleavage; RNA array
In short: as §1

Row | Variant | kcat (glucosamine-6-phosphate [1]) [s⁻¹] | self-cleavage kobs at 160 uM GlcN6P (glucosamine-6-phosphate [2]) [s⁻¹] | self-cleavage kobs at 640 uM GlcN6P (glucosamine-6-phosphate [3]) [s⁻¹] | KM (glucosamine-6-phosphate [4]) [µM] | self-cleavage kobs at 40 uM GlcN6P (glucosamine-6-phosphate [5]) [s⁻¹] | self-cleavage kobs at 2500 uM GlcN6P (glucosamine-6-phosphate [6]) [s⁻¹] | self-cleavage kobs at 10000 uM GlcN6P (glucosamine-6-phosphate [7]) [s⁻¹]
1 | C10G G32C | < 1e-05 | < 1e-05 | < 1e-05 | – | – | – | –
2 | A12C G60A | < 1e-05 | < 1e-05 | < 1e-05 | – | – | – | –
3 | C16U G63U | 1.26e-05 ± 2.3e-06 | – | – | – | – | – | –
4 | G37U C70G | 2.07e-05 ± 8.5e-06 | – | – | – | – | – | –
5 | G29U G32A | 0.00151 ± 0.00013 | 0.000105 ± 2.4e-05 | 0.000328 ± 6.3e-05 | 2210 ± 350 | 3.81e-05 ± 1.5e-05 | 0.000738 ± 0.00012 | 0.00128 ± 0.00016
6 | G13C C16G U55A G60C C70G | 1.82e-05 ± 7.2e-06 | – | – | – | – | – | –
7 | A12G A14U G32U G60A G66U | < 1e-05 | – | – | – | – | – | < 1e-05
8 | G32U U56A | 0.00196 ± 0.00014 | 3.3e-05 ± 1.3e-05 | 0.000156 ± 2.9e-05 | 7730 ± 900 | – | 0.000494 ± 7.9e-05 | 0.0011 ± 9.2e-05
9 | A33G C70G | 1.95e-05 ± 6.8e-06 | – | – | – | – | – | –
10 | A15C A64G | 0.00792 ± 0.0013 | 0.00037 ± 6.2e-05 | 0.00113 ± 0.00024 | 2980 ± 660 | 0.000125 ± 1.6e-05 | 0.00387 ± 0.00068 | 0.00614 ± 0.00072
11 | C11U G66A | 0.000908 ± 0.00021 | – | 0.000205 ± 6e-05 | 2510 ± 1100 | – | 0.000661 ± 0.00015 | 0.000673 ± 0.00012
12 | U45G U56G | 0.00528 ± 0.00075 | 0.000245 ± 6.5e-05 | 0.0011 ± 0.00017 | 2490 ± 520 | 8.78e-05 ± 1.3e-05 | 0.0033 ± 0.00052 | 0.00403 ± 0.00047
13 | A6U G60C C67A | < 1e-05 | < 1e-05 | < 1e-05 | – | – | – | < 1e-05
14 | A39C A64U | 1.4e-05 ± 2.1e-06 | – | – | – | – | – | –
15 | U46G A64C | 1.9e-05 ± 5.9e-07 | – | – | 227 ± 47 | < 1e-05 | – | –
16 | C11U C58U | 3.64e-05 ± 4.6e-06 | – | – | – | – | 4.05e-05 ± 1.3e-05 | 3.32e-05 ± 7.1e-06
17 | A14U U65C | 8.95e-05 ± 1.3e-05 | – | 3.59e-05 ± 8.9e-06 | – | – | 9.87e-05 ± 1.3e-05 | 7.83e-05 ± 7.7e-06
18 | C10A | < 1e-05 | – | – | 559 ± 95 | – | – | < 1e-05

Row | Variant | kcat (glucosamine-6-phosphate [1]) [s⁻¹] | self-cleavage kobs at 160 uM GlcN6P (glucosamine-6-phosphate [2]) [s⁻¹] | self-cleavage kobs at 640 uM GlcN6P (glucosamine-6-phosphate [3]) [s⁻¹] | KM (glucosamine-6-phosphate [4]) [µM] | self-cleavage kobs at 40 uM GlcN6P (glucosamine-6-phosphate [5]) [s⁻¹] | self-cleavage kobs at 2500 uM GlcN6P (glucosamine-6-phosphate [6]) [s⁻¹] | self-cleavage kobs at 10000 uM GlcN6P (glucosamine-6-phosphate [7]) [s⁻¹]
19 | G7A C16G | < 1e-05 | < 1e-05 | – | – | < 1e-05 | < 1e-05 | < 1e-05
20 | G37A U45G | 0.00169 ± 0.00018 | 8.96e-05 ± 3.2e-05 | 0.000349 ± 6.9e-05 | 2870 ± 530 | – | 0.000738 ± 0.00016 | 0.00132 ± 0.00019
21 | G38C C67A | < 1e-05 | < 1e-05 | – | – | < 1e-05 | – | –
22 | G29C U65A | 0.000197 ± 2.5e-05 | – | 3.62e-05 ± 1.2e-05 | 2100 ± 780 | – | 0.00013 ± 1.8e-05 | 0.000157 ± 1.5e-05
23 | G40U U45A | 0.0022 ± 0.00057 | 0.000265 ± 4.2e-05 | 0.00081 ± 0.0001 | 1030 ± 420 | 8.3e-05 ± 1.1e-05 | 0.00235 ± 0.00023 | 0.00154 ± 0.00024
24 | A48G U57C | 1.23e-05 ± 2.5e-06 | – | – | – | – | – | –
25 | U47G C50U | 3.97e-05 ± 1.6e-06 | – | – | 433 ± 100 | – | 3.64e-05 ± 1.5e-05 | 3.69e-05 ± 1.2e-05
26 | G13C U69C | 7.75e-05 ± 1.1e-05 | – | 7.04e-05 ± 2.6e-05 | – | – | 5.9e-05 ± 1.8e-05 | 8.36e-05 ± 1.7e-05
27 | A39U U69G | 6.87e-05 ± 1e-05 | – | 4.85e-05 ± 1.5e-05 | – | – | 4.76e-05 ± 1.3e-05 | 7.29e-05 ± 1.5e-05
28 | C11A C68U | 5.04e-05 ± 2.5e-06 | – | 3.2e-05 ± 1.4e-05 | 459 ± 170 | – | 3.54e-05 ± 1.4e-05 | 4.9e-05 ± 6.3e-06
29 | C11U | 0.00338 ± 0.00074 | 0.000216 ± 7.8e-06 | 0.000837 ± 8.1e-05 | 1800 ± 450 | 8.01e-05 ± 1.4e-06 | 0.00508 ± 0.0016 | 0.00293 ± 9.8e-05
30 | C11A | 0.000291 ± 2.1e-05 | 2.39e-05 ± 2.4e-06 | 6.25e-05 ± 1.7e-06 | 2280 ± 280 | < 1e-05 | 0.000153 ± 3.1e-06 | 0.000236 ± 1.4e-05
31 | G44A U56A | 0.00026 ± 6.2e-06 | – | 4.93e-05 ± 1.6e-05 | 2650 ± 150 | – | 0.00013 ± 2.6e-05 | 0.000205 ± 2.9e-05
32 | U30G U54A | 0.0115 ± 0.0045 | 0.000384 ± 7.9e-05 | 0.00201 ± 0.0004 | – | 0.000247 ± 3.2e-05 | 0.00795 ± 0.0017 | 0.00853 ± 0.0011
33 | U69G C71G | 5.4e-05 ± 2.4e-05 | – | 9.05e-05 ± 1.6e-05 | – | – | 3.23e-05 ± 1.5e-05 | –
34 | A6U C58G | < 1e-05 | – | – | – | < 1e-05 | – | < 1e-05
35 | G37C G60A C68U | 1.98e-05 ± 7.3e-06 | – | – | – | – | – | –
36 | G26U U65G | 0.00661 ± 0.0013 | 0.00028 ± 0.00012 | 0.000733 ± 0.00016 | 4570 ± 1200 | 6.93e-05 ± 3.2e-05 | 0.00291 ± 0.0011 | 0.00449 ± 0.001
